Measured values reported in patent US20250277060A1.
Each block holds one binder with its values, some of them ahead of it.

Experiments:
[1] = target: canine IgM µ-chain antigen (protein accession number E2RE31) (canine (Canis lupus familiaris)); experiment: staining of cells from CLBL-1 xenograft tumours
[2] = target: canine IgM µ-chain antigen (protein accession number E2RE31) (canine (Canis lupus familiaris)); experiment: flow cytometry screening of hybridoma clones on CLBL-1 cells

% of tumour cells positive [1]: > 95%
% binding (tier threshold of column) [2]: > 80%
B1: CL-m17A11 (antibody, V domains shown)
VH: QIQLQQSGPELVKPGASVKVSCKASGYSFTDYNIYWVKQSHGKSLEWIGFFDPHNGNTTYNQKFKGKATLTVDKSSSTAFMHLNSLTSEDSAVYYCAREGYLYAMDYWGQGTSVTVSS
VL: DVLMTQTPLSLPVSLGDQASISCRSSQSIEHSNGNTYLEWYLQKPGQAPKLLIFKVSNRFSGVPDRFSGSGSGTDFTLKISRMEAEDLGVYYCFQGSHVPPTFGGGTKLEIKR

% of tumour cells positive [1]: > 95%
B2: CL-c17A11 (antibody, V domains shown)
VH: B1 VH
VL: B1 VL
